For orientation: EC50 means the midpoint of the concentration-response curve. Low readings indicate a more potent agent, high ones a less potent agent.

The record followed here is US20220378833A1 (Novartis, published 2022).

The target in assay [1] is T1, His-Avidin-FKBP (wild-type FKBP) (biotinylated (residue not stated; construct carries an avi-tag)).
T1 construct: also called biotinylated wild-type FKBP; biotinylated FKBP
As to the kind of experiment: AlphaLISA direct assay: 30 nM Flag-FRB and 30 nM biotinylated FKBP; the titrated species is everolimus (EC50 is an everolimus concentration). As to the method: (§1) FRB mutations were also ranked in an alternative assay format. […] All dilutions were made in 1 × AlphaLISA Immunoassay buffer (PerkinElmer). Anti-Flag acceptor beads (PerkinElmer) were added at 10 ug/ml final concentration and incubated for one hour at room temperature. Streptavidin donor beads (PerkinElmer), were then added at a final concentration of 40 ug/ml and the plate was protected from light and incubated for 30 minutes at room temperature. The plate was then read on the PerkinElmer EnVision Multiplate reader equipped with the Alpha Module using excitation of 680 nm and a 570 nm Emission filter.
Background: Alpha assays give light when donor and acceptor beads are brought close together.

For assay [2], the target named is T1, His-Avidin-FKBP (wild-type FKBP). As to the kind of experiment: AlphaLISA direct assay, Flag-FRB and biotinylated FKBP, everolimus titrated. As to the method:
as §1

T1 sequence (chain, as listed by the source limits assumed): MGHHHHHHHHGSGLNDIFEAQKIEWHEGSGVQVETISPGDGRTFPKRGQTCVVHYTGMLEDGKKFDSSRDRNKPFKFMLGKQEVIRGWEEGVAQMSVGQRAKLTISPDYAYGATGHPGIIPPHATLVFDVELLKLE

B1: His-FLAG-FRB (wild-type FRB) (other)
chain: MGHHHHHHHHGSDYKDDDDKGSASRILWHEMWHEGLEEASRLYFGERNVKGMFEVLEPLHAMMERGPQTLKETSFNQAYGRDLMEAQEWCRKYMKSGNVKDLTQAWDLYYHVFRRISKTS
notes: also called wild type Flag-FRB
As to B1, the EC50 in assay [1] came out at 3.9 nM. In other words, the single-digit nanomolar range.

B2: His-FLAG-FRB T2098L (other)
chain: MGHHHHHHHHGSDYKDDDDKGSASRILWHEMWHEGLEEASRLYFGERNVKGMFEVLEPLHAMMERGPQTLKETSFNQAYGRDLMEAQEWCRKYMKSGNVKDLLQAWDLYYHVFRRISKTS
For the molecule B2, in assay [2], the “fold improvement over wild type FRB” value came to 3 fold. The molecule further showed an EC50 in assay [1] of 1.44 nM.

B3: His-FLAG-FRB E2032L (other)
chain: MGHHHHHHHHGSDYKDDDDKGSASRILWHEMWHEGLLEASRLYFGERNVKGMFEVLEPLHAMMERGPQTLKETSFNQAYGRDLMEAQEWCRKYMKSGNVKDLTQAWDLYYHVFRRISKTS
As for B3, the EC50 in assay [1] was determined as 2.15 nM.

B4: His-FLAG-FRB E2032I (other)
chain: MGHHHHHHHHGSDYKDDDDKGSASRILWHEMWHEGLIEASRLYFGERNVKGMFEVLEPLHAMMERGPQTLKETSFNQAYGRDLMEAQEWCRKYMKSGNVKDLTQAWDLYYHVFRRISKTS
notes: also called E20321 (OCR form)
On to B4, for which, in assay [1], the EC50 worked out at 2.46 nM.
